B1: SMAD6 (parent)
chain: SGLVRRLWRSRVVPDREEGGSGGG
B2: SMG5 (parent)
chain: QEKLQVLMAEGLLPAVKVFLDWLR
B3: ZNF263 (parent)
chain: HLTRHQRTHTGEKPYKCTLCGENF

Variants of: B1
Test: protein stability index of a GFP-peptide fusion (GPS, HEK-293T) (PSI 1-6); higher = more stable
Conditions: c terminus: a fixed tail appended
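Also: lentivirally expressed fusions sorted by FACS into six bins by GFP to DsRed ratio, PSI derived from sequencing read proportions per bin multiplied by bin number.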

Protein stability index of substitutions, site by site:
E18: F 2.68 | A 2.9 | D 3.82 | C 2.94 | P 3.46 | N 2.42 | I 4.17 | Y 2.44 | V 3.85
G20: C 3.04 | N 3.11 | F 2.82 | I 3.06 | A 4 | Q 3.96 | L 2.74 | R 4.04 | V 2.44 | W 1.99
G22: E 4.04 | C 3.04 | A 3.84 | R 4.48 | I 3.87 | F 2.98
R6: M 2.93 | A 3.27 | H 4 | S 3.29 | C 3.46
G23: F 3.13 | V 3.78 | M 3.25 | D 5.01 | E 3.9 | N 3.01 | H 3.7 | S 4.47 | P 3.89
G19: M 3.35 | K 4.06 | W 2.79 | A 4.28 | P 4.07
G2: K 3.6 | F 2.93 | V 3.03 | S 4.17 | E 2.35 | L 3.51 | W 2.29 | P 4.79 | M 3.19 | H 4.14 | A 2.15 | D 2.93 | N 4.17
L3: M 4.06 | S 4.38 | N 4.73 | T 3.54 | W 4.17 | Q 3.88
R11: K 4.15 | G 4.98 | T 4.68 | I 2.63 | W 2.22
S1: M 2.45 | C 2.09 | I 2.92 | W 2.61 | Q 5.24 | H 3.81
D15: P 3.62 | M 3.01 | T 4.33 | I 2.75 | K 3.35 | H 3.55 | E 4.31 | N 3.96
E17: T 3.31 | K 4.14 | D 4.12 | A 3.47 | C 4.26 | R 2.93 | S 4.07 | Y 1.19 | V 3.71 | G 3.86
S21: D 4.54 | E 3.53 | W 2.9 | V 3.37 | Y 3.09
W8: S 5.1 | Q 5 | N 5.26 | L 4.22 | K 4.64
P14: L 3.18 | D 2.83 | Y 3.02 | N 3.77 | K 4.3
G24: Q 3.59 | F 2.44 | C 4.91 | K 3.78 | H 2.83 | E 4 | T 4.01
V12: P 3.67 | C 2.94 | M 4.06 | D 4.76 | F 3.69 | Y 3.1 | I 4.07 | N 4.22
V13: W 3.37 | F 3.32 | L 3.99 | K 4.13 | D 4.88
V4: G 3.41 | K 4.45 | E 4.63
R16: L 3.34 | Q 3.67 | S 4.7 | E 4.32 | M 3.4 | I 3.76 | W 3.25 | N 4.37
S10: F 2.4 | H 2.24 | A 3.76 | N 3.89 | W 2.6
R9: T 2.82 | G 3.27 | P 4.85 | H 3.69 | N 3.96
R5: H 4.21 | L 1.97 | Q 3.72 | C 2.46 | S 3.27 | A 3.76 | M 3.3 | I 2.4
L7: E 3.82 | Y 3.82 | H 3.55 | S 4 | Q 4.4 | I 4.14

Variants of: B2
Test: as above
Conditions: c terminus: a fixed tail appended

Protein stability index of substitutions, site by site:
K3: V 2.02 | A 4.03 | W 1.48 | H 1.96 | N 1.91 | L 1.78 | F 1.53 | G 1.91 | Q 2.66 | Y 2.15 | S 1.79 | M 1.5 | C 2.03 | R 3.73 | T 1.48 | E 2.25 | I 1.45 | D 2.02
Q5: T 1.47 | G 1.88 | F 1.46 | I 2.86 | N 1.67 | P 2.22 | V 2.31 | D 3.13 | A 2 | E 4.03 | H 1.58 | S 2.8 | Y 1.8 | M 2.19 | W 1.45 | L 2.5 | K 2.45 | C 2.11
V6: C 2.14 | E 2.18 | H 1.55 | D 1.96 | G 2.42 | A 1.82
L4: V 2.58 | Y 4.02 | C 3.13 | F 2.71 | T 3.18 | G 3.1 | E 1.12 | D 3.26 | S 2.75 | M 2.32 | H 2.2 | R 2.69 | I 1.91 | W 2.18
E2: Q 2.92 | R 2.37 | Y 2.15 | V 2.56 | P 2.96 | W 1.56 | L 1.44 | C 2.47 | I 2.23 | S 3.11 | N 2.86 | F 2.2 | D 2.26 | K 2.38 | M 2.83 | A 2.31 | T 2.68 | H 3.82 | G 1.6
Q1: A 2.23 | E 3.01 | W 1.95 | H 1.45 | T 1.96 | P 2.09 | R 1.57 | M 2.37 | N 1.62 | F 2.89 | K 4.12 | S 2.88 | L 3.5 | I 2.95 | G 2.22 | V 2.18 | D 2.79 | C 1.53 | Y 2.81

Variants of: B3
Test: as above
Conditions: c terminus: a fixed tail appended

Protein stability index of substitutions, site by site:
G21: R 2.46 | T 2.7 | E 3.58 | A 3.27 | F 2.43 | D 3.26 | S 2.99 | W 2.23 | C 2.73 | V 2.26 | Q 2.85 | P 2.68 | H 3.46 | K 3.42 | I 2.41 | Y 2.97 | N 3.02 | M 3.06 | L 2.58
C20: Y 2.77 | W 2.56
F24: Q 2.88 | C 4.06 | N 3.7 | D 4.62 | G 3.67 | W 3.08 | K 3.12 | L 3.44 | M 3.58 | Y 2.9 | V 3.47 | T 3.85 | P 3.14 | A 4.22 | S 4.49 | I 3.02 | H 3.46 | E 4.08 | R 3.13
E22: N 2.69 | I 2.75 | G 2.31 | M 2.31 | T 2.58 | S 2.9 | R 2.29 | W 2.13 | D 3.33 | V 2.17 | H 3.43 | A 2.54 | F 1.95 | P 2.95 | K 2.36 | L 2.08 | Q 2.38 | Y 2.39 | C 2.29
N23: V 1.85 | M 2.3 | E 2.75 | S 2.7 | Q 2.63 | H 1.98 | T 2.83 | W 2.57 | L 2.34 | I 2.57 | K 3.22 | D 3.33 | C 3.13 | P 2.54 | G 4.03 | F 2.33 | Y 2.53 | A 2.68 | R 3.08
